pKd: −log10 of the molar value.

One test addresses Cdc42 (UniProt P60766). Nature of the test: cell-based or functional assay.
Test [1] deals with Dronpa145N (Pectimidae genus coral). Nature of the test: inferred from native PAGE of 100 µM protein after cyan (about 500 nm) illumination; self-association, off-photoswitched state.

UniProt P60766, sequence (P60766 1-188 limits assumed): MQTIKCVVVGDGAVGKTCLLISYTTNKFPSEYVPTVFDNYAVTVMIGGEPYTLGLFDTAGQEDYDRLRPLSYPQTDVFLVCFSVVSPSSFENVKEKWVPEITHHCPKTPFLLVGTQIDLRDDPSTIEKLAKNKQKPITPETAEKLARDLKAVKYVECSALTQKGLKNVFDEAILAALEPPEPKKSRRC

In the test with Cdc42, “K-I-N-CAAX (Dronpa145K-intersectin DH domain-Dronpa145N-CAAX) (from UniProt Q15811 1234-1428) (enzyme)” gave a basal filopodia or lamellipodia in low expressers of 8%; a cells forming abundant filopodia within 30 minutes after illumination of 90%; a cells forming filopodia, not exposed to light of 25%.

Turning to “N-I-N-CAAX (Dronpa145N-intersectin DH domain-Dronpa145N-CAAX) (from UniProt Q15811 1234-1428) (enzyme)”, in the test with Cdc42, the cells forming abundant filopodia within 30 minutes after 490/20-nm light for 30 seconds came to 78% and the cells forming filopodia in the same time interval without illumination turned out to be 10%.

Consider “N-I-N-CAAX (Dronpa145N-intersectin DH domain-Dronpa145N-CAAX) (from UniProt Q15811 1234-1428)”, for which the basal filopodia or lamellipodia in low expressers in the test with Cdc42 is 0%.

The pKd is the negative decadic logarithm of the Kd, by convention in mol/L. Read a high pKd as a small Kd. Consider Dronpa145N, for which, in test [1], the pKd was below 4.00.

The record behind these values is patent publication US20130252282A1.
